# Data reported in US20180037654A1 (ADURO BIOTECH HOLDINGS EUROPE B V, published 2018).
# Tests used:
# [1] = target: T1, human CTLA-4 (Y166G and Y183G) expressed on CHO-K1.hCTLA-4 cells (human, UniProt P16410 36-223); assay: CELISA, blockade of biotinylated hCD80/Fc binding to CHO-K1.hCTLA-4 cells
# Procedure: CHO-K1.hCTLA-4 cells were seeded in tissue culture plates and incubated at 37° C., 5% CO₂ and 95% humidity in culture medium. Once the cells were confluent culture medium was removed and cells were incubated for 1 hour with the humanized hCTL4.27 antibody variants (10 μg/ml and dilutions thereof) at 37° C., 5% CO₂ and 95% humidity. […] Cells were then washed with PBST followed by addition of Streptavidin-HRP conjugate on the cells, which was incubated for 1 hour at 37° C., 5% CO₂ and 95% humidity. […] Reactions were stopped with 0.5 M H₂SO₄ and absorbances were read at 450 and 610 nm. […] IC50 values represent the concentration at which half of the inhibition is observed.
# [2] = target: T1, human CTLA-4 (Y166G and Y183G) …; assay: CELISA on CHO-K1.hCTLA-4 cells
# Procedure: Binding of the humanized antibodies to hCTLA-4 was studied in CELISA format. CHO-K1.hCTLA-4 cells were seeded in culture medium (DMEM-F12 (Gibco) with 10% Fetal Bovine Serum (Hyclone) and Pen/Strep (Gibco)) in tissue culture plates and cultured at 37° C., 5% CO₂ and 95% humidity until they were confluent. Subsequently, culture medium was removed and cells were incubated for 1 hour at 37° C., 5% CO₂ and 95% humidity with purified hCTLA-4 antibodies (10 μg/ml and dilutions thereof). Next, cells were washed with PBS/0.05% Tween (PBST) and incubated for 1 hour at 37° C., 5% CO₂ and 95% humidity with goat-anti-human IgG-HRP (Southern Biotechnology) or goat-anti-mouse IgG-HRP (Southern Biotechnology). Subsequently, cells were washed 3 times with PBST and anti-hCTLA-4 immunoreactivity was visualized with TMB Stabilized Chromagen (Invitrogen). Reactions were stopped with 0.5 M H₂SO₄ and absorbances were read at 450 and 610 nm.
# T1 sequence (P16410 36-223 Y201G/Y218G limits assumed): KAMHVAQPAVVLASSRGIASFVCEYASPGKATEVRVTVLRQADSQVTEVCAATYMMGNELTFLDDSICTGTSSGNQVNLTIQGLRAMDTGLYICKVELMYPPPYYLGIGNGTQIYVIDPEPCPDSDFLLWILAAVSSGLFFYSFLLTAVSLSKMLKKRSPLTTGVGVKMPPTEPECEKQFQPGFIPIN
Binder,IC50 [1] [nM],EC50 [2] [nM]
"hCTLA4.27H1L1 (antibody, human IgG4 S228P, kappa, V domains shown, Humanized, human IgG4 (S228P) kappa; H1 read as hCTLA4.27VH1, L1 as hCTLA4.27VL1) VH: EVQLLQSGAVLARPGTSVKISCKASGYSFTTYWMNWVKQRPGQGLEWIGMIHPSDSETSLNQAFKDKAKLTAATSASIAYLEFSSLTNEDSAVYYCARMGRRNPYYFDYWGQGTLVTVSS VL: DIQMTQSPSSLSASVGDRVTITCRPSENLYTNLAWYQQKPGKAPKLLLYGATNLADGVPSRFSGSGSGTDYTLTISSLQPEDFATYYCQHLWGTPFTFGQGTKLEIKR",2.55,0.037
"hCTLA4.27H3L1 (antibody, human IgG4 S228P, kappa, V domains shown, Humanized, human IgG4 (S228P) kappa; H3 read as hCTLA4.27VH3, L1 as hCTLA4.27VL1) VH: EVQLVQSGAVVAKPGSSVKVSCKASGYSFTTYWMNWVRQAPGQGLEWMGMIHPSDSETSLNQAFKDRVTITADKSTSTAYMELSSLTSEDTAVYYCARMGRRNPYYFDYWGQGTTVTVSS VL: DIQMTQSPSSLSASVGDRVTITCRPSENLYTNLAWYQQKPGKAPKLLLYGATNLADGVPSRFSGSGSGTDYTLTISSLQPEDFATYYCQHLWGTPFTFGQGTKLEIKR",2.52,0.07
"hCTLA4.27H1L3 (antibody, human IgG4 S228P, kappa, V domains shown, Humanized, human IgG4 (S228P) kappa; H1 read as hCTLA4.27VH1, L3 as hCTLA4.27VL3) VH: EVQLLQSGAVLARPGTSVKISCKASGYSFTTYWMNWVKQRPGQGLEWIGMIHPSDSETSLNQAFKDKAKLTAATSASIAYLEFSSLTNEDSAVYYCARMGRRNPYYFDYWGQGTLVTVSS VL: DIQMTQSPSSLSASVGDTVTITCRPSENLYTNLAWYQQKPGKAPKLLLYGATNLADGVPSRFSGSGSGTDYTLTISSLQSEDFATYYCQHLWGTPFTFGQGTKLEIKR",3.13,0.045
"hCTLA4.27H3L3 (antibody, human IgG4 S228P, kappa, V domains shown, Humanized, human IgG4 (S228P) kappa; H3 read as hCTLA4.27VH3, L3 as hCTLA4.27VL3) VH: EVQLVQSGAVVAKPGSSVKVSCKASGYSFTTYWMNWVRQAPGQGLEWMGMIHPSDSETSLNQAFKDRVTITADKSTSTAYMELSSLTSEDTAVYYCARMGRRNPYYFDYWGQGTTVTVSS VL: DIQMTQSPSSLSASVGDTVTITCRPSENLYTNLAWYQQKPGKAPKLLLYGATNLADGVPSRFSGSGSGTDYTLTISSLQSEDFATYYCQHLWGTPFTFGQGTKLEIKR",3.37,0.101
"hCTLA4.27H5L1 (antibody, human IgG4 S228P, kappa, V domains shown, Humanized, human IgG4 (S228P) kappa; H5 read as hCTLA4.27VH5, L1 as hCTLA4.27VL1) VH: EVQLLQAGAVLARPGTSVKISCKASGYSFTTYWMNWVKQRPGKGLEWIGMIHPSDSETSLNQAFKDKAKLTAATSASIAYLEFSSLTNEDSAVYYCARIGRRNPYYFDYWGQGTLVTVSS VL: DIQMTQSPSSLSASVGDRVTITCRPSENLYTNLAWYQQKPGKAPKLLLYGATNLADGVPSRFSGSGSGTDYTLTISSLQPEDFATYYCQHLWGTPFTFGQGTKLEIKR",5.39,0.029

# Further binders by falling IC50 [1], results first:
IC50 [1] [nM],EC50 [2] [nM],Binder
2.98,0.042,"hCTLA4.27H2L1 (antibody, human IgG4 S228P, kappa, V domains shown, Humanized, human IgG4 (S228P) kappa; H2 read as hCTLA4.27VH2, L1 as hCTLA4.27VL1) VH: EVQLVQSGAVLVKPGASVKVSCKASGYSFTTYWMNWVRQRPGKGLEWIGMIHPSDSETSLNQAFKDKVTITADESTSTAYMQLSSLRSEDTAVYYCARMGRRNPYYFDYWGQGTTVTVSS VL: DIQMTQSPSSLSASVGDRVTITCRPSENLYTNLAWYQQKPGKAPKLLLYGATNLADGVPSRFSGSGSGTDYTLTISSLQPEDFATYYCQHLWGTPFTFGQGTKLEIKR"
2.97,0.051,"hCTLA4.27H2L3 (antibody, human IgG4 S228P, kappa, V domains shown, Humanized, human IgG4 (S228P) kappa; H2 read as hCTLA4.27VH2, L3 as hCTLA4.27VL3) VH: EVQLVQSGAVLVKPGASVKVSCKASGYSFTTYWMNWVRQRPGKGLEWIGMIHPSDSETSLNQAFKDKVTITADESTSTAYMQLSSLRSEDTAVYYCARMGRRNPYYFDYWGQGTTVTVSS VL: DIQMTQSPSSLSASVGDTVTITCRPSENLYTNLAWYQQKPGKAPKLLLYGATNLADGVPSRFSGSGSGTDYTLTISSLQSEDFATYYCQHLWGTPFTFGQGTKLEIKR"
2.06,0.065,"hCTLA4.27H3L2 (antibody, human IgG4 S228P, kappa, V domains shown, Humanized, human IgG4 (S228P) kappa; H3 read as hCTLA4.27VH3, L2 as hCTLA4.27VL2) VH: EVQLVQSGAVVAKPGSSVKVSCKASGYSFTTYWMNWVRQAPGQGLEWMGMIHPSDSETSLNQAFKDRVTITADKSTSTAYMELSSLTSEDTAVYYCARMGRRNPYYFDYWGQGTTVTVSS VL: DIQMTQSPSSLSASVGDRVTITCRPSENLYTNLAWYQQKPGKAPKLLIYGATNLADGVPSRFSGSGSGTEFSLSISSLQPEDFATYYCQHLWGTPFTFGGGTKVEIKR"
1.91,0.035,"hCTLA4.27H5L5 (antibody, human IgG4 S228P, kappa, V domains shown, Humanized, human IgG4 (S228P) kappa; H5 read as hCTLA4.27VH5, L5 as hCTLA4.27VL5) VH: EVQLLQAGAVLARPGTSVKISCKASGYSFTTYWMNWVKQRPGKGLEWIGMIHPSDSETSLNQAFKDKAKLTAATSASIAYLEFSSLTNEDSAVYYCARIGRRNPYYFDYWGQGTLVTVSS VL: DIQMTQAPSSLSASVGDRVTITCRPSENLYTNLAWYQQKPGKAPKLLLYGATNLADGVPSRFSGSGSGTDYTLTISSLQAEDFATYYCQHLWGTPFTFGGGTKLEIKR"
